Laboratory results reported in article PMC12556802, “Rules of engagement: Determinants of chemokine receptor activation and selectivity by CCL27 and CCL28” (The Journal of Biological Chemistry, 2025).
Numbering of substitutions follows the chain as printed. In names and notes the source's numbering stands. Where two headings read alike, the source gives them in different places. Each block holds one binder with its values, some of them ahead of it.

Legend:
CCR10-RlucII [1] = molecular target: T1, CCR10-RlucII (human, UniProt P46092 1-362); assay: cell-based or functional assay
T1 sequence (looked up): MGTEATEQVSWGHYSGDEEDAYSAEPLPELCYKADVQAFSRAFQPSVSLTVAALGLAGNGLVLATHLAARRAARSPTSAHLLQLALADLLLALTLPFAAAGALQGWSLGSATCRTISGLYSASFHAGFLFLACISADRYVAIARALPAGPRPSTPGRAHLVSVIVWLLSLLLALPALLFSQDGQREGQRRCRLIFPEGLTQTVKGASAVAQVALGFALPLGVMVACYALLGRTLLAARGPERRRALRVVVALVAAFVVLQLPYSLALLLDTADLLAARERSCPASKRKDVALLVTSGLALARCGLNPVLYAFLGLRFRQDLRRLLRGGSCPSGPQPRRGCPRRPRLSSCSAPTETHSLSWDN

[2] = substrate: T2, CC chemokine receptor 10 (CCR10) on L1.2 cells (human) (UniProt P46092)
T2 sequence: T1 sequence (looked up)

CCR10-RlucII [3] = molecular target: T1, CCR10-RlucII
[4] = substrate: T2, ; remark: listed apart in the source
[5] = substrate: T2, ; remark: listed apart in the source

β-arrestin2 recruitment to CCR10-RlucII by BRET in HEK293 cells, efficacy relative to WT CCL27 (CCR10-RlucII [1]): 1.5 fold
β-arrestin2 recruitment to CCR10-RlucII by BRET in HEK293 cells, potency relative to WT CCL27 (CCR10-RlucII [1]): 3.5 fold
B1: NT28-CCL27 (ligand)
chain: ILPIASSCCTQLYRKPLSDKLLRKVIQVELQEADGDCHLQAFVLHLAQRSICIHPQNPSLSQWFEHQERKLHGTLPKLNFGMLRKMG

migration of L1.2/CCR10 cells, dose-response (0.1 nM to 1 μM), reduction in efficacy relative to WT CCL27 [2]: 35%
migration of L1.2/CCR10 cells, dose-response (0.1 nM to 1 μM), reduction in potency relative to WT CCL27 [2]: 10 fold
transwell migration of L1.2/CCR10 cells at 50 nM chemokine, reduction compared to WT CCL27 [2]: 85%
B2: F1A-CCL27 (ligand)
chain: ALLPPSTACCTQLYRKPLSDKLLRKVIQVELQEADGDCHLQAFVLHLAQRSICIHPQNPSLSQWFEHQERKLHGTLPKLNFGMLRKMG

β-arrestin2 recruitment to CCR10-RlucII by BRET in HEK293 cells, EC50 of the chemokine (CCR10-RlucII [1]): 89 nM
B3: CCL27 (ligand)
chain: B2 chain with A1F

β-arrestin2 recruitment to CCR10-RlucII by BRET in HEK293 cells, EC50 of the chemokine (CCR10-RlucII [3]): 19 nM
β-arrestin2 recruitment to CCR10-RlucII by BRET in HEK293 cells, Emax relative to WT-CCL27 (CCR10-RlucII [3]): 1.8 fold
bare filter chemotaxis of L1.2/CCR10 cells, efficacy relative to WT CCL27 [4]: 1.1 fold
bare filter chemotaxis of L1.2/CCR10 cells, potency relative to WT CCL27 [4]: 10 fold
transendothelial migration of L1.2/CCR10 cells, efficacy relative to WT CCL27 [4]: 2.7 fold
transendothelial migration of L1.2/CCR10 cells, potency relative to WT CCL27 [4]: 3 fold
internalization of CCR10 on L1.2/CCR10 cells (3.1-100 nM chemokine, 45 min, 37 °C), percent of receptor remaining on the surface at 3.1 nM [5]: 30%
B4: F-CCL27 (ligand)
chain: FFLLPPSTACCTQLYRKPLSDKLLRKVIQVELQEADGDCHLQAFVLHLAQRSICIHPQNPSLSQWFEHQERKLHGTLPKLNFGMLRKMG
